{
  "source": "patent CN112010969A",
  "about": "(UNIV NANCHANG, dated 2020)",
  "binders": {"B1": {"name": "高亲和力增强绿色荧光蛋白纳米抗体 (anti-EGFP nanobody), clone 4-28 (VHH)", "VHH": "QVQLVESGGGLVQPGGSLRLSCAASGSRFSIHTMGWYRQAPGKQRELVATITWGGRQNYADSVKGRFTINRDNDKNTVDLQMDSLKPEDTAVYYCNVRPISNGPDYWGQGTQVTVSS", "notes": "Alpaca VHH selected by phage display; The purified protein was about 20 kD by SDS-PAGE; also called 抗EGFP纳米抗体; 编号4-28; not shown: Expressed from PET25b in E. coli Rosetta and purified on a nickel column"}},
  "molecular_target": "T1, 增强绿色荧光蛋白 (enhanced green fluorescent protein, EGFP) (Aequorea victoria (engineered mutant), UniProt P42212 1-238 = GFP, limits assumed)",
  "T1 construct": "also called EGFP蛋白",
  "experiment": "biolayer interferometry: nanobody coupled by EDC/s-NHS to AR2G probe, association 300 s, dissociation 120 s in PBS",
  "data": [
    {"binder": "B1", "values": [
      {"measurement": "Kd", "value": 0.0967, "unit": "nM"}
    ]}
  ]
}
